Among the data in PMC6273323 (2016) are Kd values, retold here.

The test deals with T1, DF*NNN fluorinated iNOS peptide.
T1 chain: D[Phe(4-F)]NNN
Briefly: SPR. For orientation: Surface plasmon resonance follows binding to a sensor surface in real time, without labels.

Non-standard residues stand in square brackets, D forms with d. No end group written: not given here. Phe(4-F) = N[C@@H](Cc1ccc(F)cc1)C(=O)O

B1: SPSB2 (protein)
chain: MGQTALARGSSSTPTSQALYSDFSPPEGLEELLSAPPPDLVAQRHHGWNPKDCSENIDVKEGGLCFERRPVAQSTDGVRGKRGYSRGLHAWEISWPLEQRGTHAVVGVATALAPLQADHYAALLGSNSESWGWDIGRGKLYHQSKGLEAPQYPAGPQGEQLVVPERLLVVLDMEEGTLGYSIGGTYLGPAFRGLKGRTLYPSVSAVWGQCQVRIRYMGERRVEEPQSLLHLSRLCVRHALGDTRLGQISTLPLPPAMKRYLLYK
For orientation: Kd means the concentration at which binding is half-saturated. As to B1, the Kd was 3000 nM.
